Experimental data published in the Immune Epitope Database (IEDB).
pKd: −log10 of the molar value. Values belong to the sequence of their own block, whether it stands above or below them.

Key:
HLA-B*15:01 = assay: IEDB peptide-MHC binding, purified MHC/competitive/radioactivity; filed as Kd, often an IC50 or EC50 that approximates it; ≥ and ≤ were set here for values at or beyond the usual limits of such assays; settings: source organism: Vaccinia virus WR
HLA-A*01:01 = assay: as above
HLA-A*23:01 = assay: as above
HLA-A*24:02 = assay: as above
HLA-A*26:01 = assay: as above
HLA-A*29:02 = assay: as above
HLA-A*30:02 = assay: as above
HLA-B*35:01 = assay: as above
HLA-B*53:01 = assay: as above; settings: source organism: Dengue virus 1 Brazil/97-11/1997
HLA-B*18:01 = assay: IEDB peptide-MHC binding, purified MHC/direct/fluorescence; filed as Kd, often an IC50 or EC50 that approximates it; ≥ and ≤ were set here for values at or beyond the usual limits of such assays; settings: source organism: Mammarenavirus lassaense
HLA-B*40:01 = assay: as above; settings: source organism: Mammarenavirus lassaense
HLA-A*03:01 = assay: IEDB peptide-MHC binding, purified MHC/competitive/radioactivity; filed as Kd, often an IC50 or EC50 that approximates it; ≥ and ≤ were set here for values at or beyond the usual limits of such assays; settings: source organism: Triticum aestivum
HLA-A*11:01 = assay: as above; settings: source organism: Triticum aestivum
HLA-A*31:01 = assay: as above; settings: source organism: Triticum aestivum
HLA-A*33:01 = assay: as above; settings: source organism: Triticum aestivum
HLA-A*68:01 = assay: as above; settings: source organism: Triticum aestivum
HLA-A*30:01 = assay: as above; settings: source organism: Lassa virus Josiah
HLA-A*32:01 = assay: as above; settings: source organism: Lassa virus Josiah
HLA-B*51:01 = assay: as above; settings: source organism: Dengue virus 3 Martinique/1243/1999
[1] = source organism: SARS coronavirus Tor2
[2] = source organism: Dengue virus 1 Brazil/97-11/1997
[3] = source organism: Dengue virus 4 Philippines/H241/1956
[4] = source organism: Mammarenavirus guanaritoense
[5] = source organism: Mammarenavirus whitewaterense
[6] = source organism: Triticum aestivum
[7] = source organism: Lassa virus Josiah

Sequence: RSFTFKEGF
pKd (HLA-B*15:01): 7.46

Sequence: VYDPLQPEL
pKd (HLA-A*01:01; [1]): ≤ 4.11
pKd (HLA-A*23:01; [1]): 4.89
pKd (HLA-A*24:02; [1]): ≤ 4.35
pKd (HLA-A*26:01; [1]): ≤ 4.11
pKd (HLA-A*29:02; [1]): 8.07
pKd (HLA-A*30:02; [1]): 6.52

Sequence: VFFTFVLLL
pKd (HLA-A*24:02; source organism: Dengue virus 3 Martinique/1243/1999): 6.59

Sequence: YSDPLALREF
pKd (HLA-A*01:01; [2]): 7.67
pKd (HLA-B*35:01; [2]): 5.72
pKd (HLA-B*53:01): 6.05

Sequence: FTPEAKNSTF
pKd (HLA-A*24:02; [3]): 5.52
pKd (HLA-A*26:01; [3]): 6.19

Sequence: NETGLELTL
pKd (HLA-B*18:01): 7.78
pKd (HLA-B*40:01): 7.72

Sequence: FFGALKFKI
pKd (HLA-A*23:01; [4]): 6.68
pKd (HLA-A*24:02; [4]): 5.67
pKd (HLA-A*29:02; [4]): 7.69

Sequence: KFWYVNHTGF
pKd (HLA-A*23:01; [5]): 7.09
pKd (HLA-A*24:02; [5]): 6.22
pKd (HLA-A*29:02; [5]): 6.47

Sequence: EPEVANLDII
pKd (HLA-B*53:01): 5.07

pKd (HLA-A*03:01): ≤ 4.15
pKd (HLA-A*11:01): 5.75
pKd (HLA-A*23:01; [6]): ≤ 4.41
pKd (HLA-A*24:02; [6]): ≤ 4.15
pKd (HLA-A*26:01; [6]): ≤ 4.58
pKd (HLA-A*29:02; [6]): 7.26
pKd (HLA-A*30:02; [6]): 9.68
pKd (HLA-A*31:01): ≤ 4.15
pKd (HLA-A*33:01): ≤ 4.15
pKd (HLA-A*68:01): ≤ 4.15
Sequence: VSFQQPQQQY

Sequence: MAMTCIAVG
pKd (HLA-B*35:01; [3]): 6.94

Sequence: PYPDPSRIL
pKd (HLA-A*01:01; [1]): ≤ 4.11
pKd (HLA-A*23:01; [1]): 4.70
pKd (HLA-A*24:02; [1]): ≤ 4.08
pKd (HLA-A*26:01; [1]): ≤ 4.11
pKd (HLA-A*29:02; [1]): ≤ 4.44
pKd (HLA-A*30:02; [1]): ≤ 4.12

Sequence: ITEMLQKEY
pKd (HLA-A*01:01; [7]): 7.73
pKd (HLA-A*26:01; [7]): ≤ 4.11
pKd (HLA-A*29:02; [7]): 5.12
pKd (HLA-A*30:01): 5.32
pKd (HLA-A*30:02; [7]): 6.76
pKd (HLA-A*32:01): ≤ 4.11

Sequence: PFGDSYIVI
pKd (HLA-A*23:01; [3]): 6.14

Sequence: LAAIANQAV
pKd (HLA-B*51:01): 5.87
